Values of other authors, collected in patent US9145575B2, “Detection of protease and protease activity using a single nanocrescent SERS probe” (The Regents of the University of California, priority 2006, dated 2015).

Molecular target: PSA (Homo sapiens, UniProt P07288)
Details: mouse model

Sequence of PSA (P07288 25-261): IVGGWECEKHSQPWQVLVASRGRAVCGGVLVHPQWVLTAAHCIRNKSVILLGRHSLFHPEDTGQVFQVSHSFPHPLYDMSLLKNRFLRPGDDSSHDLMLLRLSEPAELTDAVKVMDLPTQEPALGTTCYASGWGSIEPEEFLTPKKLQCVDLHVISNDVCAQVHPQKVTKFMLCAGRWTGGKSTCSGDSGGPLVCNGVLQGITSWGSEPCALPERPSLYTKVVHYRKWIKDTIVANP

Substance: HSSKLQ-L (HSSKLQLAAAC; Synthetic protease substrate)
- cleavage by proteases in vivo: cleaved by PSA but not by any other proteases
